These results are taken from publication PMC2169338 (The Journal of Cell Biology, 1999).

The data set “SDS-PAGE” concerns the molecule itself. Briefly: SDS-PAGE.
Data set [1] concerns the molecule itself. Kind of data set: 35S-sulfate labelling, SDS-PAGE and phosphorimaging of the purified complex.

B1: Tom70 (receptor, UniProt P23231 1-624, looked up)
chain: MAPTIPPPSVPIPAATPVTVPADSSIWDRVSNWVSEHKAVVYTIAGVSVVITTAGVVYYLRKGSEQKESGPKLSKKERRKRKQAEKGEAEKASTSKTEEAAPTQPKAAAVESADELPEIDEESVVRLSEDERKAYAAKLKELGNKAYGSKDFNKAIDLYSKAIICKPDPVYYSNRAACHNALAQWEQVVADTTAALKLDPHYVKALNRRANAYDQLSRYSDALLDFTASCIIDGFRNEQSAQAVERLLKKFAENKAKEILETKPPKLPSSTFVGNYLQSFRSKPRPEGLEDSVELSEETGLGQLQLGLKHLESKTGTGYEEGSAAFKKALDLGELGPHEALAYNLRGTFHCLMGKHEEALADLSKSIELDPAMTQSYIKRASMNLELGHPDKAEEDFNKAIEQNAEDPDIYYHRAQLHFIKGEFAEAAKDYQKSIDLDSDFIFSHIQLGVTQYKMGSIASSMATFRRCMKNFDQTPDVYNYYGELLLDQNKFQEAIEKFDTAIALEKETKPMCMNVLPLINKALALFQWKQDYAEAEQLCEKALIIDPECDIAVATMAQLLLQQGKVVEALKFFERAAELARTEGELVNALSYAEATRTQIQVQENYPELASKLQGMSGGPGMR
What is called stoichiometry N is the number of molecules, sites or subunits per partner or assembly. For B1, the “stoichiometry N” value in the data set “SDS-PAGE” came to 2.

B2: Tom40 (natural protein)
chain: not shown
Take B2: the “stoichiometry N” value in data set [1] is ~8 copies of Tom40 in the core complex.
